In US20230183354A1 (IMMIOS HOLDING B V, published 2023):
Positions count from the first letter of the chain named. Each block holds one binder with its values, some of them ahead of it.

Columns and labels:
[1] = biological target: T1, human CD103 (integrin Alpha-E) / human integrin Beta-7 heterodimer on cells (human, UniProt P38570 19-1179; P26010 20-798); assay: flow cytometry competition on CD103+CD8+ T cells; pre-incubation with unlabeled 01A; table n=1
T1 construct: the assay field tells which cells; also called hCD103/hBeta7; CHO.K1-hCD103/hBeta7
T1 sequence (P38570 19-1179 limits assumed, chain 1 of 2): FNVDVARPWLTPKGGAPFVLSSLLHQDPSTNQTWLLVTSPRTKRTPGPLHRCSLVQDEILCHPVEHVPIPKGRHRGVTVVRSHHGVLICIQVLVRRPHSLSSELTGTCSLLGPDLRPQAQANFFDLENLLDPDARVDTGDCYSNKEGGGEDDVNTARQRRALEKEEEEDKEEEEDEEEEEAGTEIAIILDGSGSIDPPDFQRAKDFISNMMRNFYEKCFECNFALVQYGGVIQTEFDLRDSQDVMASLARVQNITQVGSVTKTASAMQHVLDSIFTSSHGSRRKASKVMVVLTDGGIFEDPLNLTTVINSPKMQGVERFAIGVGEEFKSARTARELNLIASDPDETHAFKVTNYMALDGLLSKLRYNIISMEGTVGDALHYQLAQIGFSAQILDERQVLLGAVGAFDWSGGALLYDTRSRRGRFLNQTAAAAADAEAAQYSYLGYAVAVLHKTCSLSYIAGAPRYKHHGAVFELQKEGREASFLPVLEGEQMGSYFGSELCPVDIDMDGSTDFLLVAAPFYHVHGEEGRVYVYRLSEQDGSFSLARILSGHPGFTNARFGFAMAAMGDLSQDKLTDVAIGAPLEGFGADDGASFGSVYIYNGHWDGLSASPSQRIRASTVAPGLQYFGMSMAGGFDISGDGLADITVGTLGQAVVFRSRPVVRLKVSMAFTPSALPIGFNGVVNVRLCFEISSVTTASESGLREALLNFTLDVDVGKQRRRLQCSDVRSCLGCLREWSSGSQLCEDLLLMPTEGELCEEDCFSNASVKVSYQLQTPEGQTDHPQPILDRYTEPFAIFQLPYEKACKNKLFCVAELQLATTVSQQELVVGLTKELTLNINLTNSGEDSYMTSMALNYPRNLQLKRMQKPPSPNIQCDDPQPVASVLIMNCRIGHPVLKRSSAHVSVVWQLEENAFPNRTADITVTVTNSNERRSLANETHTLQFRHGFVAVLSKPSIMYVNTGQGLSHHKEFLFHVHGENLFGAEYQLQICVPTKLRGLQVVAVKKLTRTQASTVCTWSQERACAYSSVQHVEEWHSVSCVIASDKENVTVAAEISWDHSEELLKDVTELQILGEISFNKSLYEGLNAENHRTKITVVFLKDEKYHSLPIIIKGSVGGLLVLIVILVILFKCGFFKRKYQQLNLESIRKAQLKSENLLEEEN
T1 sequence (P26010 20-798 limits assumed, chain 2 of 2): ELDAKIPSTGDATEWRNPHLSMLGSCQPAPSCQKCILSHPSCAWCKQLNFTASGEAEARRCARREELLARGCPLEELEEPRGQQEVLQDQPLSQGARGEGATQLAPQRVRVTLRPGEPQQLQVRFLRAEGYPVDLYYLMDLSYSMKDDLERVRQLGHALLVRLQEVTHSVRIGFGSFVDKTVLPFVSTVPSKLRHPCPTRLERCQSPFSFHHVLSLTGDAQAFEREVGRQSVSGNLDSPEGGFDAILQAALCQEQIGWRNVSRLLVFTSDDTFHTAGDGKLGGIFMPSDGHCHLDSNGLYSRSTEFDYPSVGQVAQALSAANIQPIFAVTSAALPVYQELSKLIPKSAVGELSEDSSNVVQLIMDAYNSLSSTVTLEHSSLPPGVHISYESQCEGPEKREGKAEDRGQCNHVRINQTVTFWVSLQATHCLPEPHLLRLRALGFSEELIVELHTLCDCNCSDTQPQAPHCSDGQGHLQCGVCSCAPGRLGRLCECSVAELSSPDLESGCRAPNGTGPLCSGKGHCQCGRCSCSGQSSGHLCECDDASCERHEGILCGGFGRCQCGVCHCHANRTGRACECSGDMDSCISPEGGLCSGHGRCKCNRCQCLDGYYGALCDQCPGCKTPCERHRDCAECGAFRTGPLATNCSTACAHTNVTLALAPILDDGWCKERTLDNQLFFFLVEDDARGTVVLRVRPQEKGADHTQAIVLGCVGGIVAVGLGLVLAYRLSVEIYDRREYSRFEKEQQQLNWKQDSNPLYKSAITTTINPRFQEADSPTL
Experimental: (§1) Percentage binding of fluorescently labeled mAbs was determined using flow cytometry. Maximum binding was set at 100%.
(§2) Percentage binding of fluorescently labeled mAbs was determined using flow cytometry. Maximum binding was set at 100%

[2] = biological target: T2, human integrin Alpha-4 / human integrin Beta-7 heterodimer on CHO-K1 cells (human, UniProt P13612 34-1032; P26010 20-798); assay: cell ELISA on CHO.K1-humanAlpha4/beta7 cells, abs 450-610
T2 construct: Used as the control for reactivity with hBeta7; also called hAlpha4/hBeta7; CHO.K1-hAlpha4/hBeta7
T2 sequence (P13612 34-1032 limits assumed, chain 1 of 2): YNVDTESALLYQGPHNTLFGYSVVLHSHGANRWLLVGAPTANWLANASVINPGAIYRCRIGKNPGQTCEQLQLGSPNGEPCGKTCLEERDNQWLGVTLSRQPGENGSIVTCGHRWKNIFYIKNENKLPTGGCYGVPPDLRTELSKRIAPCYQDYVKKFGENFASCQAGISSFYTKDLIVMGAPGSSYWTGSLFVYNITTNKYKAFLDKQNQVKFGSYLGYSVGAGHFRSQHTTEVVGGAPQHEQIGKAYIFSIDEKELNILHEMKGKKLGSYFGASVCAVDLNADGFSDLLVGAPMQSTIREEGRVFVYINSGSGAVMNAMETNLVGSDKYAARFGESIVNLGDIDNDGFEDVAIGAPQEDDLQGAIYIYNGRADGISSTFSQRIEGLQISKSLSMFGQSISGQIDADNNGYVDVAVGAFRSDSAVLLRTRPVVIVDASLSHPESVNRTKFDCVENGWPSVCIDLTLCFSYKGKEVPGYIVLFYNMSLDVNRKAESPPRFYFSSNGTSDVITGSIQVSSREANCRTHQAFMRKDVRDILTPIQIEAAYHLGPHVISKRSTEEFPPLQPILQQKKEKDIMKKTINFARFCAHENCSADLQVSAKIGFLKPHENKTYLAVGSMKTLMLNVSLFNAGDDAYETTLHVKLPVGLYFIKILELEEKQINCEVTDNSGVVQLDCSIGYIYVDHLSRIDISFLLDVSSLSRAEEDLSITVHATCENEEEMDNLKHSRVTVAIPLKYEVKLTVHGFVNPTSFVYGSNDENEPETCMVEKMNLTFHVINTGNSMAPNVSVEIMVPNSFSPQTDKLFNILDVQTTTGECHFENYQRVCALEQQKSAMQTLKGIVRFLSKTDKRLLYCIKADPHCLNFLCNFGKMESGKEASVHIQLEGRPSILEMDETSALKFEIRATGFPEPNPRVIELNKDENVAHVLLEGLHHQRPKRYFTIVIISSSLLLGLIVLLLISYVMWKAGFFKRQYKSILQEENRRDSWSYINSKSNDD
T2 sequence (P26010 20-798 limits assumed, chain 2 of 2): as the sequence (P26010 20-798 limits assumed, chain 2 of 2) above

[3] = biological target: T1, human CD103 (integrin Alpha-E) / human …; assay: flow cytometry competition on CD103+CD8+ T cells; pre-incubation with unlabeled 01A; table n=2
Experimental: as §1, §2

[4] = biological target: T1, human CD103 (integrin Alpha-E) / human …; assay: flow cytometry competition on CD103+CD8+ T cells; pre-incubation with unlabeled 07A; table n=2
Experimental: as §1, §2

[5] = biological target: T1, human CD103 (integrin Alpha-E) / human …; assay: flow cytometry competition on CD103+CD8+ T cells; pre-incubation with unlabeled BERACT; table n=2
Experimental: as §1, §2

[6] = biological target: T1, human CD103 (integrin Alpha-E) / human …; assay: flow cytometry competition on CD103+CD8+ T cells; pre-incubation with unlabeled 02A; table n=2
Experimental: as §1, §2

[7] = biological target: T1, human CD103 (integrin Alpha-E) / human …; assay: flow cytometry competition on CD103+CD8+ T cells; pre-incubation with unlabeled MCA708 (f4); table n=2
Experimental: as §1, §2

[8] = biological target: T1, human CD103 (integrin Alpha-E) / human …; assay: flow cytometry competition on CD103+CD8+ T cells; pre-incubation with unlabeled 03A; table n=2
Experimental: as §1, §2

[9] = biological target: T1, human CD103 (integrin Alpha-E) / human …; assay: flow cytometry competition on CD103+CD8+ T cells; pre-incubation with unlabeled 05A; table n=1
Experimental: as §1, §2

[10] = biological target: T1, human CD103 (integrin Alpha-E) / human …; assay: flow cytometry competition on CD103+CD8+ T cells; pre-incubation with unlabeled 07A; table n=1
Experimental: as §2

[11] = biological target: T1, human CD103 (integrin Alpha-E) / human …; assay: flow cytometry competition on CD103+CD8+ T cells; pre-incubation with unlabeled IgG (f2); table n=2
Experimental: as §1, §2

% binding of the fluorescently labeled mAb (IgG pre-incubation = 100) [1]: 0.7%
binding result [2]: no binding
% binding of the fluorescently labeled mAb (IgG pre-incubation = 100) [3]: 0.7%
% binding of the fluorescently labeled mAb (IgG pre-incubation = 100) [4]: 29.8%
% binding of the fluorescently labeled mAb (IgG pre-incubation = 100) [5]: 1%
% binding of the fluorescently labeled mAb (IgG pre-incubation = 100) [6]: 0.9%
% binding of the fluorescently labeled mAb (IgG pre-incubation = 100) [7]: 92.5%
% binding of the fluorescently labeled mAb (IgG pre-incubation = 100) [8]: 77.8%
% binding of the fluorescently labeled mAb (IgG pre-incubation = 100) [9]: 7.9%
% binding of the fluorescently labeled mAb (IgG pre-incubation = 100) [10]: 33.7%
% binding of the fluorescently labeled mAb (IgG pre-incubation = 100) [11]: 100%
B1: hCD103.07A (antibody, mouse IgG1, V domains shown)
VH: EVQLQESGPSLVKPSQTLSLTCSVTGDSITSGYWNWIRKFPGNKLEYMGYITYSGSTYYNPSLKSRISITRDTSKNQYYLQLNSVTTEDTATYYCARNYYGSSSMDYWGQGTSVTVSS
VL: DIVMTQSQKFMSTSVADRVSVTCKASQNVGSDVAWYQQKPGQSPKSLIYSASYRYSGVPDRFTGSGSGTDFTLTISNVQSEDLAEYFCQQYNSYPSTFGGGTKLEIK
notes: also called clone 07A

% binding of the fluorescently labeled mAb (IgG pre-incubation = 100) [1]: 1.5%
binding result [2]: no binding
% binding of the fluorescently labeled mAb (IgG pre-incubation = 100) [3]: 2.2%
% binding of the fluorescently labeled mAb (IgG pre-incubation = 100) [4]: 26.6%
% binding of the fluorescently labeled mAb (IgG pre-incubation = 100) [5]: 4%
% binding of the fluorescently labeled mAb (IgG pre-incubation = 100) [6]: 3%
% binding of the fluorescently labeled mAb (IgG pre-incubation = 100) [7]: 92.3%
% binding of the fluorescently labeled mAb (IgG pre-incubation = 100) [8]: 97.3%
% binding of the fluorescently labeled mAb (IgG pre-incubation = 100) [9]: 71.8%
% binding of the fluorescently labeled mAb (IgG pre-incubation = 100) [10]: 27.5%
% binding of the fluorescently labeled mAb (IgG pre-incubation = 100) [11]: 100%
B2: hCD103.01A (antibody, V domains shown)
VH: B1 VH with A96T, N98H, S103D, S104A
VL: DIVMTQSHKFMSTSVGDRVSITCKASQDVSIAVAWYQQRPGQSPKLLIYSASYRYTGVPDRFTGSGSGTDFTFTISSVQAEDLAVYYCQQHYSTPWTFGGGTKLEIK
notes: Also tested labelled with AF647, conjugated with Df and labelled with 89Zr; these are written under this molecule; also called clone 01A; hCD103.01 mAb

% binding of the fluorescently labeled mAb (IgG pre-incubation = 100) [1]: 96%
binding result [2]: no binding
% binding of the fluorescently labeled mAb (IgG pre-incubation = 100) [3]: 99.1%
% binding of the fluorescently labeled mAb (IgG pre-incubation = 100) [4]: 97%
% binding of the fluorescently labeled mAb (IgG pre-incubation = 100) [5]: 109%
% binding of the fluorescently labeled mAb (IgG pre-incubation = 100) [6]: 103%
% binding of the fluorescently labeled mAb (IgG pre-incubation = 100) [7]: 1%
% binding of the fluorescently labeled mAb (IgG pre-incubation = 100) [8]: 108%
% binding of the fluorescently labeled mAb (IgG pre-incubation = 100) [9]: 101%
% binding of the fluorescently labeled mAb (IgG pre-incubation = 100) [10]: 93.2%
% binding of the fluorescently labeled mAb (IgG pre-incubation = 100) [11]: 100%
B3: hCD103.06A (antibody, mouse IgG1, V domains shown)
VH: QVQLQQPGSELVRPGASVKLSCKASGYTFTSYWMHWVKQRHGQGLEWIGNIYPGSGSTNYDEKFKSKGTLTVDTSSSTAYMHLSSLTSEDSAVYYCTRGVYDNPYYFDYWGQGTTLTVSS
VL: DIQMTQSSSNLSVSLGGRVTITCKASDHINNWLAWYQQKPGNAPRVLISGATSLETGVPSRFSGSGSGKDYTLSITSLQTEDVATYYCQQYWSIPLTFGAGTKLELK
notes: also called clone 06A; hCD103.06 mAb

% binding of the fluorescently labeled mAb (IgG pre-incubation = 100) [1]: 2.6%
binding result [2]: no binding
% binding of the fluorescently labeled mAb (IgG pre-incubation = 100) [3]: 2.2%
% binding of the fluorescently labeled mAb (IgG pre-incubation = 100) [4]: 56.9%
% binding of the fluorescently labeled mAb (IgG pre-incubation = 100) [5]: 4.9%
% binding of the fluorescently labeled mAb (IgG pre-incubation = 100) [6]: 4.6%
% binding of the fluorescently labeled mAb (IgG pre-incubation = 100) [7]: 89.7%
% binding of the fluorescently labeled mAb (IgG pre-incubation = 100) [8]: 90.9%
% binding of the fluorescently labeled mAb (IgG pre-incubation = 100) [9]: 13.1%
% binding of the fluorescently labeled mAb (IgG pre-incubation = 100) [10]: 66.3%
% binding of the fluorescently labeled mAb (IgG pre-incubation = 100) [11]: 100%
B4: hCD103.05A (antibody, mouse IgG1, V domains shown)
VH: EVQLQQSGPELEKPGASAKISCKASGYSFTGYNMNWVKQSNGKSLEWIGNIDPYYGGTSYNQKFKGKATLTVDKSSSTAYMQLKSLTSEDSAVYYCARSFYGYDAGSPYNYAMDYWGQGTPVTVSP
VL: DIVMTQSHKFMSTSVGDRVSITCKASQDVGTFVAWYQQKPGQSPKLLIYWASTRHTGVPDRFTGSGSGTDFTLTISNVQSEDLADYFCHQYSSYPYTFGGGTQLEIK
notes: Also tested labelled with AF647, conjugated with Df and labelled with 89Zr; these are written under this molecule; also called clone 05A; hCD103.05 mAb
